From US20230405119A1 (CITY OF HOPE, published 2023)
Residue numbers refer to the chain shown, from its start. Numbers in names are those of the source. Each block holds one binder with its values, some of them ahead of it.

Columns and labels:
[1] = target: T1, immobilized recombinant IL13Rα1 (UniProt P78552 22-343, limits assumed); test: yeast-displayed IL13 variant; surface plasmon resonance with immobilized recombinant receptor, as the filing words it
T1 construct: also called IL13Ra1
T1 sequence (looked up): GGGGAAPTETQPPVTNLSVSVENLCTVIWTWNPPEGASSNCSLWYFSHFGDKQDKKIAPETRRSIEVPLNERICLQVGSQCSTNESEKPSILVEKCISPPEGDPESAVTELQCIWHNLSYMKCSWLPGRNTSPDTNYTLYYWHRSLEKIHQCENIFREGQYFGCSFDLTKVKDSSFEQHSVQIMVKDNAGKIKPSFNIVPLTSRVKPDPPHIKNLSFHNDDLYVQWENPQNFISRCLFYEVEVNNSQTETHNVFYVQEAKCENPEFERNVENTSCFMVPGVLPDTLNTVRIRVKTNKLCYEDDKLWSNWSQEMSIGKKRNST
Description: (§1) In an effort to identify IL13 variants with increased selectivity for binding IL13Rα2 relative to IL13Rα1. To assess receptor binding various mutants were compared to wild-type IL13 ([…] […]; SEQ ID NO: 1) and the previously known […] E11Y mutant ([…] […]; SEQ ID NO: 69). […] Surface plasmon resonance with immobilized recombinant IL13Rα1 and immobilized IL13Rα2 was used to assess binding affinity. As expected, WT bound strongly to both IL13Rα1 and IL13Rα2.

[2] = target: T2, immobilized IL13Rα2 (UniProt Q14627 27-343, limits assumed); test: yeast-displayed IL13; surface plasmon resonance with immobilized recombinant receptor, as the filing words it
T2 construct: also called IL13Ra2
T2 sequence (looked up): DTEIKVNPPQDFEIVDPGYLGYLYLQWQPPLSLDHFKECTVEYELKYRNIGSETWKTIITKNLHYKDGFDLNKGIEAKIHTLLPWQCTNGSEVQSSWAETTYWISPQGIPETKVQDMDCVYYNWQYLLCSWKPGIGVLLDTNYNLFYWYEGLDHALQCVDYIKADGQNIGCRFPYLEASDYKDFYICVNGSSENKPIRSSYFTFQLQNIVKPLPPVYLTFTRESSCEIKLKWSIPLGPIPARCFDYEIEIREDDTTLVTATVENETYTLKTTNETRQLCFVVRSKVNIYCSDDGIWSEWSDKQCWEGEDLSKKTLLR
Description: as §1

binding result [1]: no binding
Kd [2]: 0.028 µM
B1: IL13 variant RLK (E11R: E90L: R107K) (ligand)
chain: GPVPPSTALRRLIEELVNITQNQKAPLCNGSMVWSINLTAGMYCAALESLINVSGCSAIEKTQRMLSGFCPHKVSAGQFSSLHVRDTKILVAQFVKDLLLHLKKLFKEGRFN
notes: display scaffold not described

binding result [1]: no binding
Kd [2]: 0.026 µM
B2: IL13 variant YLK (E11Y: E90L: R107K) (ligand)
chain: B1 chain with R11Y
notes: as for B1
